# From US20180264102A1
# Tests used:
# [1] = biological target: Hoc- Soc- bacteriophage T4 capsid (Soc binding sites) (bacteriophage T4) (UniProt P04535); test: in vitro binding to Hoc- Soc- T4 phage, SDS-PAGE
# [2] = biological target: Hoc- Soc- bacteriophage T4 capsid (Soc binding sites) (bacteriophage T4) (UniProt P04535)
Substance,ratio of antigen molecules to Soc binding sites at saturation (antigen molecules : Soc binding sites) [1],Kd [2] [nM],percent occupancy of the 870 Soc binding sites [2] [%]
Soc-PA (93 kDa) recombinant protein with RB49 Soc,20,737,42
F1mutV-Soc (66 kDa) recombinant protein with RB49 Soc,20,298,75
